This experiment deals with UDP-N-acetylglucosamine-peptide N-acetylglucosaminyltransferase (mouse (endogenous in MEFs)) (UniProt Q8CGY8). Kind of experiment: co-IP; data not shown: share of HCF1 of the MEF lysate that is enriched by immunoprecipitation of endogenous OGT.
Sequence of UniProt Q8CGY8 (Q8CGY8 whole entry): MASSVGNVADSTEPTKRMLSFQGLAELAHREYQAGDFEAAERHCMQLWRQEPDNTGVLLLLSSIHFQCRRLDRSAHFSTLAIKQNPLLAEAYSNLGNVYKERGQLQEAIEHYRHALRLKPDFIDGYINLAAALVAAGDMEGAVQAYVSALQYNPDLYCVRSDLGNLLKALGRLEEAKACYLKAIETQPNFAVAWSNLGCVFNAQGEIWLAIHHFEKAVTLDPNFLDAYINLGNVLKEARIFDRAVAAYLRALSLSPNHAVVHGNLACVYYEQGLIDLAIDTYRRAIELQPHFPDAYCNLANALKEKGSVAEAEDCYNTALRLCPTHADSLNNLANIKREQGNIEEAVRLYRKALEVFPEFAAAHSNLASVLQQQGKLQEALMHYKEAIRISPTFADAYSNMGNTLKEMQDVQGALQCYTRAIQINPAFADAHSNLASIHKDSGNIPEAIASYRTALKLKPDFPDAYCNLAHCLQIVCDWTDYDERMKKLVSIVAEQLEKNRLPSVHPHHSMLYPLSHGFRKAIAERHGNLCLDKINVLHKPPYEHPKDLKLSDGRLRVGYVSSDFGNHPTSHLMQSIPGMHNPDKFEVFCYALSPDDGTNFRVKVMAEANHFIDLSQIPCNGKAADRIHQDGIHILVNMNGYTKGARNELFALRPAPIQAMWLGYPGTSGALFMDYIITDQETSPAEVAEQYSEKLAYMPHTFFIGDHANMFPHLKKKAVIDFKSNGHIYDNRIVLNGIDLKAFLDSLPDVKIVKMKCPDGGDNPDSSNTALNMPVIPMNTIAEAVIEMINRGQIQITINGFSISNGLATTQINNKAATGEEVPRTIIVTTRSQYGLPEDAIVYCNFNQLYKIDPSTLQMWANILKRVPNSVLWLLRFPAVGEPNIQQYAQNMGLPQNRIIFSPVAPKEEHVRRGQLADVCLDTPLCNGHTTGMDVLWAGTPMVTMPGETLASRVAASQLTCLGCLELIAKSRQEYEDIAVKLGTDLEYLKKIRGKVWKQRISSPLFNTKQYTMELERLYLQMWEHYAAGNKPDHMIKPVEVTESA

As to “Host cell factor 1 precursor, Q61191 1-2045”, the percent of FL HCF1 enriched by OGT immunoprecipitation is 80 to 90%.

These data come from paper PMC8079276.
